In article PMC10026030, “A short-chain acyl-CoA synthetase that supports branched-chain fatty acid synthesis in Staphylococcus aureus” (The Journal of Biological Chemistry, 2023):
Like-named read-outs stand apart in the source and are kept apart here.

How the values were obtained:
[1] = molecular target: T1, MbcS (methylbutyryl-CoA synthetase; SAUSA300_2542) (Staphylococcus aureus, UniProt A0A0H2XHR6); assay: LC-MS/MS of acyl-CoA product, Michaelis-Menten fit; conditions: 2.5 mM ATP, 2.5 mM Mg2+, 200 μM CoA, Tris pH 7.5, 37 °C
T1 sequence (A0A0H2XHR6 1-532): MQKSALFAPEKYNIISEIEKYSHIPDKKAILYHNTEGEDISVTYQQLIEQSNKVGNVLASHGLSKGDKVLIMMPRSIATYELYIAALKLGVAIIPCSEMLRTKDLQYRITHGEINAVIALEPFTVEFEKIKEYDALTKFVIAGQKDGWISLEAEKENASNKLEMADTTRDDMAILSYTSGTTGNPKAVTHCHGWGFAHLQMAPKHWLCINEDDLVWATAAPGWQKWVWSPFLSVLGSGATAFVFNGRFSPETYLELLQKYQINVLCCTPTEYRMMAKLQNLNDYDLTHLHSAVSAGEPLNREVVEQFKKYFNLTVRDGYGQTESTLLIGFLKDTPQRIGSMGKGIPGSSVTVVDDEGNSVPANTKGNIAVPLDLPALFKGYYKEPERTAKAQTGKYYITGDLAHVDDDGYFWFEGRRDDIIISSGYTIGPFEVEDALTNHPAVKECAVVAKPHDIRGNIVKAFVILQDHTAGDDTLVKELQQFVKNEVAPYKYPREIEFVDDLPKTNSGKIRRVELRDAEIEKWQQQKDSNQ

[2] = substrate: CC(C)(COP(=O)(O)OP(=O)(O)OC[C@H]1O[C@@H](n2cnc3c(N)ncnc32)[C@H](O)[C@@H]1OP(=O)(O)O)[C@@H](O)C(=O)NCCC(=O)NCCS; assay: purified protein; conditions: 2.5 mM ATP, 2.5 mM Mg2+, 50 μM aC5, Tris pH 7.5, 37 °C
[3] = substrate: CCCC(=O)O; assay: purified protein; conditions: 2.5 mM ATP, 2.5 mM Mg2+, 200 μM CoA, Tris pH 7.5, 37 °C
[4] = substrate: Nc1ncnc2c1ncn2[C@@H]1O[C@H](COP(=O)(O)OP(=O)(O)OP(=O)(O)O)[C@@H](O)[C@H]1O; assay: purified protein; conditions: 2.5 mM Mg2+, 200 μM CoA, 50 μM aC5, Tris pH 7.5, 37 °C

CC(C)CC(=O)O [iC5, isovalerate]
Km [1]: > 500 µM

CC(C)C(=O)O [iC4, isobutyrate]
Km ([1]; read-out: apparent KM): < 10 µM

B1: MbcS (methylbutyryl-CoA synthetase; SAUSA300_2542) (Staphylococcus aureus subsp. aureus USA300) (protein)
chain: T1 sequence (A0A0H2XHR6 1-532)
Km [2]: 49.3 ± 6.9 µM | Km [3]: 144 µM | Km [4]: 3.2 ± 0.2 µM
